Laboratory results as given in patent US5849897.

Key:
[1] = molecular target: human ciliary neurotrophic factor receptor (CNTFR) (human); assay: indirect binding: CNTF-myc, 9E10, FITC-labelled goat anti-mouse antibody, FACS of transfected COS cells
[2] = molecular target: human ciliary neurotrophic factor receptor (CNTFR) (human); assay: indirect binding on COS cells transfected with clone I14: CNTF-myc, 9E10, 125I goat anti-mouse; hand-held gamma counter
[3] = molecular target: human ciliary neurotrophic factor receptor (CNTFR) (human); assay: indirect binding on COS cells transfected with clone I12: CNTF-myc, 9E10, 125I goat anti-mouse; hand-held gamma counter
[4] = molecular target: human ciliary neurotrophic factor receptor (CNTFR) (human); assay: indirect binding on COS cells transfected with clone I8: CNTF-myc, 9E10, 125I goat anti-mouse; hand-held gamma counter
[5] = molecular target: human ciliary neurotrophic factor receptor (CNTFR) (human); assay: indirect binding on COS cells transfected with clone I7: CNTF-myc, 9E10, 125I goat anti-mouse; hand-held gamma counter
[6] = molecular target: human ciliary neurotrophic factor receptor (CNTFR) (human); assay: indirect binding on COS cells transfected with clone I4: CNTF-myc, 9E10, 125I goat anti-mouse; hand-held gamma counter
[7] = molecular target: human ciliary neurotrophic factor receptor (CNTFR) (human); assay: indirect binding on COS cells transfected with clone I15: CNTF-myc, 9E10, 125I goat anti-mouse; hand-held gamma counter
[8] = molecular target: human ciliary neurotrophic factor receptor (CNTFR) (human); assay: indirect binding on COS cells transfected with clone I10: CNTF-myc, 9E10, 125I goat anti-mouse; hand-held gamma counter
[9] = molecular target: human ciliary neurotrophic factor receptor (CNTFR) (human); assay: indirect binding on COS cells transfected with clone I5: CNTF-myc, 9E10, 125I goat anti-mouse; hand-held gamma counter
[10] = molecular target: human ciliary neurotrophic factor receptor (CNTFR) (human); assay: indirect binding on COS cells transfected with clone I2: CNTF-myc, 9E10, 125I goat anti-mouse; hand-held gamma counter
[11] = molecular target: human ciliary neurotrophic factor receptor (CNTFR) (human); assay: indirect binding on COS cells transfected with clone I11: CNTF-myc, 9E10, 125I goat anti-mouse; hand-held gamma counter
[12] = molecular target: human ciliary neurotrophic factor receptor (CNTFR) (human); assay: indirect binding on COS cells transfected with clone I13: CNTF-myc, 9E10, 125I goat anti-mouse; hand-held gamma counter
[13] = molecular target: human ciliary neurotrophic factor receptor (CNTFR) (human); assay: indirect binding on COS cells transfected with clone I6: CNTF-myc, 9E10, 125I goat anti-mouse; hand-held gamma counter
[14] = molecular target: human ciliary neurotrophic factor receptor (CNTFR) (human); assay: indirect binding on COS cells transfected with clone I1: CNTF-myc, 9E10, 125I goat anti-mouse; hand-held gamma counter
[15] = molecular target: human ciliary neurotrophic factor receptor (CNTFR) (human); assay: indirect binding on COS cells transfected with clone I9: CNTF-myc, 9E10, 125I goat anti-mouse; hand-held gamma counter

CNTF/myc (ligand)
fold increase (FACS, positive against negative clones) [1]: 100 fold | CPM bound [2]: 10000 CPM | CPM bound [3]: 5000 CPM | CPM bound [4]: 7500 CPM | CPM bound [5]: 6000 CPM | CPM bound [6]: 9000 CPM | CPM bound [7]: 8000 CPM | CPM bound [8]: 4500 CPM | CPM bound [9]: 2000 CPM | CPM bound [10]: 8500 CPM | CPM bound [11]: 7000 CPM | CPM bound [12]: 8000 CPM | CPM bound [13]: 1600 CPM | CPM bound [14]: 2000 CPM | CPM bound [15]: 7000 CPM
